How the values were obtained:
Test in all cases: EMSA
Conditions in all cases: tags: MBP fusion
ZFP SBS#1471 = target: T1, ZFP SBS#1471 (synthetic)
T1 chain: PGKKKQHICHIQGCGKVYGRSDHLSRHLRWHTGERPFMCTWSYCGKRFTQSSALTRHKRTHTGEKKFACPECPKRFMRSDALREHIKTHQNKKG
In short: (§1)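 Purified ZFP was titrated against labeled double-stranded target (1 nM or lower, at least 10-fold below expected Kd) carrying the natural binding site with flanks. Binding buffer was 10 mM Tris pH 7.5, 100 mM KCl, 1 mM MgCl2, 0.1 mM ZnCl2, 5 mM DTT, 10% glycerol, 0.02% BSA, with equilibration for at least 45 min. Bound and free target were separated on a 10% polyacrylamide gel.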

ZFP SBS#1490 = target: T2, ZFP SBS#1490 (synthetic)
T2 chain: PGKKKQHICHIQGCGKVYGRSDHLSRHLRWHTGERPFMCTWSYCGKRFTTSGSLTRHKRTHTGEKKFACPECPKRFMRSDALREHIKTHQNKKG
In short: as §1

ZFP SBS#1464 = target: T3, ZFP SBS#1464 (synthetic)
T3 chain: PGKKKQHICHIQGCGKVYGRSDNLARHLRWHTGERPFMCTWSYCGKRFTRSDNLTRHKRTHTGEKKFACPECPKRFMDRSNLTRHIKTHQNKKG
In short: as §1

ZFP SBS#1461 = target: T4, ZFP SBS#1461 (synthetic)
T4 chain: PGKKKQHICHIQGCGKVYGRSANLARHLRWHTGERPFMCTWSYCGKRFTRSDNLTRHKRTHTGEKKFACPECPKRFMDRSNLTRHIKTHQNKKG
In short: as §1

ZFP SBS#558 = ZFP SBS#558 (synthetic)
Sequence of ZFP SBS#558 (synthetic) (chain, as listed by the source): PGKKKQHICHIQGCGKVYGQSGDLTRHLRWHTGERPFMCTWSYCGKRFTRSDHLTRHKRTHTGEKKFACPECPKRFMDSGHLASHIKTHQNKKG
In short: as §1

ZFP SBS#1262 = ZFP SBS#1262 (synthetic)
Sequence of ZFP SBS#1262 (synthetic) (chain, as listed by the source): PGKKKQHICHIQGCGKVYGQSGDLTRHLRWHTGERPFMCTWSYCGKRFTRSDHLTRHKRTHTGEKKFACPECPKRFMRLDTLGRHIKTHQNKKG
In short: as §1

ZFP SBS#1261 = ZFP SBS#1261 (synthetic)
In short: as §1

ZFP SBS#1263 = ZFP SBS#1263 (synthetic)
In short: as §1

ZFP SBS#1485 = ZFP SBS#1485 (synthetic)
In short: as §1

ZFP SBS#1446 = ZFP SBS#1446 (synthetic)
Sequence of ZFP SBS#1446 (synthetic) (chain, as listed by the source): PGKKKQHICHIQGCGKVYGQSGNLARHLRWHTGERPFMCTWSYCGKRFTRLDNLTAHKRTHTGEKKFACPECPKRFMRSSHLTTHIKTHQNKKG
In short: as §1

ZFP SBS#1443 = ZFP SBS#1443 (synthetic)
In short: as §1

ZFP SBS#1444 = ZFP SBS#1444 (synthetic)
Sequence of ZFP SBS#1444 (synthetic) (chain, as listed by the source): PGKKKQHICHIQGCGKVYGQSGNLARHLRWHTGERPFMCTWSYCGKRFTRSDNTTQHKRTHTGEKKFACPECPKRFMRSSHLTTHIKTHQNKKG
In short: as §1

ZFP SBS#1445 = target: T5, ZFP SBS#1445 (synthetic)
T5 chain: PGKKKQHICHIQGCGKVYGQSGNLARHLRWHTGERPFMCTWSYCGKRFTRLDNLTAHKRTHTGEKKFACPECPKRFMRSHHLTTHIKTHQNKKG
In short: as §1

ZFP SBS#1477 = target: T6, ZFP SBS#1477 (synthetic)
T6 chain: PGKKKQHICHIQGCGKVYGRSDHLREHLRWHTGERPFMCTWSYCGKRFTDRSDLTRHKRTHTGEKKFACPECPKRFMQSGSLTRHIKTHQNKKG
In short: as §1

ZFP SBS#1475 = target: T7, ZFP SBS#1475 (synthetic)
T7 chain: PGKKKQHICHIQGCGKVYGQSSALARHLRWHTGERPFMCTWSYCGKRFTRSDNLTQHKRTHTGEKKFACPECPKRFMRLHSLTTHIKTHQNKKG
In short: as §1

ZFP SBS#1473 = target: T8, ZFP SBS#1473 (synthetic)
T8 chain: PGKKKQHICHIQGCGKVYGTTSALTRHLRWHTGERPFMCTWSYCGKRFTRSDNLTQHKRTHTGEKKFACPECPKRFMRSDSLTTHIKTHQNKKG
In short: as §1

ZFP SBS#1476 = target: T9, ZFP SBS#1476 (synthetic)
T9 chain: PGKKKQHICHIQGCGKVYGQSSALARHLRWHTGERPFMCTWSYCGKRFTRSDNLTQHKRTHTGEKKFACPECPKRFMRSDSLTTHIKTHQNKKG
In short: as §1

ZFP SBS#1487 = target: T10, ZFP SBS#1487 (synthetic)
T10 chain: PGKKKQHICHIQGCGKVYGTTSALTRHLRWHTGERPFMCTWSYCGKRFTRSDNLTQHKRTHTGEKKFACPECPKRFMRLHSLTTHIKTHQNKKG
In short: as §1

ZFP SBS#1474 = target: T11, ZFP SBS#1474 (synthetic)
T11 chain: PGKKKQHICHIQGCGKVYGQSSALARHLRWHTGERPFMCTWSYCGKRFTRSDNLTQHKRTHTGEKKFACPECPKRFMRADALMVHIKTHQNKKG
In short: as §1

ZFP SBS#1472 = target: T12, ZFP SBS#1472 (synthetic)
T12 chain: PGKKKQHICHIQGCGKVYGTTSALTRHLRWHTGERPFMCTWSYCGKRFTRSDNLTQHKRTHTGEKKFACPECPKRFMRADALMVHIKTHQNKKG
In short: as §1

ZFP SBS#1482 = target: T13, ZFP SBS#1482 (synthetic)
T13 chain: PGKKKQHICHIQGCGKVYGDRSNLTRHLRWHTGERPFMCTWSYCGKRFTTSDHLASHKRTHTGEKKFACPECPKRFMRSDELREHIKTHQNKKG
In short: as §1

ZFP SBS#1483 = target: T14, ZFP SBS#1483 (synthetic)
T14 chain: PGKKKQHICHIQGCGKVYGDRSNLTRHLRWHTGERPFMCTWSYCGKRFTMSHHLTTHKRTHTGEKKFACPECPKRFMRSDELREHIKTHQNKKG
In short: as §1

ZFP SBS#1469 = target: T15, ZFP SBS#1469 (synthetic)
T15 chain: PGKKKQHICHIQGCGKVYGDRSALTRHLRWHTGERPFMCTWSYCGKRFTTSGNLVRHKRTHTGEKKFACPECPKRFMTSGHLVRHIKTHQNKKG
In short: as §1

ZFP SBS#1468 = target: T16, ZFP SBS#1468 (synthetic)
T16 chain: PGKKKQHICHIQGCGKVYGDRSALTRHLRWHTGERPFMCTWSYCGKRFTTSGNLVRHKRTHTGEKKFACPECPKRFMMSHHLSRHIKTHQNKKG
In short: as §1

ZFP SBS#1470 = target: T17, ZFP SBS#1470 (synthetic)
T17 chain: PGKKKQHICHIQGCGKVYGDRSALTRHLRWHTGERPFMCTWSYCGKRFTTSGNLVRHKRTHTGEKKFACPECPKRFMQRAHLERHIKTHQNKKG
In short: as §1

ZFP SBS#1463 = ZFP SBS#1463 (synthetic)
In short: as §1

ZFP SBS#1481 = target: T18, ZFP SBS#1481 (synthetic)
T18 chain: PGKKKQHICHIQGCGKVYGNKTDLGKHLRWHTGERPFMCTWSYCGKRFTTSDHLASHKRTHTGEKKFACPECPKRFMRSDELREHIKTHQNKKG
In short: as §1

ZFP SBS#1479 = target: T19, ZFP SBS#1479 (synthetic)
T19 chain: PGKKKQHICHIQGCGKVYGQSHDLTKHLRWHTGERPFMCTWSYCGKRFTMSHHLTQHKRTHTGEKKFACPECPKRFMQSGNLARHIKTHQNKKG
In short: as §1

ZFP SBS#1480 = target: T20, ZFP SBS#1480 (synthetic)
T20 chain: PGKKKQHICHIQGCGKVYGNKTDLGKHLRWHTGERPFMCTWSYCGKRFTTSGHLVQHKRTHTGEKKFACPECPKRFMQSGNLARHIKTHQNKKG
In short: as §1

ZFP SBS#1466 = target: T21, ZFP SBS#1466 (synthetic)
T21 chain: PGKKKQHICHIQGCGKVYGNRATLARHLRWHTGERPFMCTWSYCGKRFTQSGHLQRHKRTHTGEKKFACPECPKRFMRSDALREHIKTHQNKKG
In short: as §1

ZFP SBS#1465 = target: T22, ZFP SBS#1465 (synthetic)
T22 chain: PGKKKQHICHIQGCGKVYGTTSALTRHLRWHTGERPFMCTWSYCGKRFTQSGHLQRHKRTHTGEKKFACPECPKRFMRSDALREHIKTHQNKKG
In short: as §1

ZFP SBS#1455 = ZFP SBS#1455 (synthetic)
Sequence of ZFP SBS#1455 (synthetic) (chain, as listed by the source): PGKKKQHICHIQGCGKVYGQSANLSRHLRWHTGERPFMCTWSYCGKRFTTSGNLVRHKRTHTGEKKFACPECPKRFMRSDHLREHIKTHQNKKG
In short: as §1

ZFP SBS#1462 = ZFP SBS#1462 (synthetic)
Sequence of ZFP SBS#1462 (synthetic) (chain, as listed by the source): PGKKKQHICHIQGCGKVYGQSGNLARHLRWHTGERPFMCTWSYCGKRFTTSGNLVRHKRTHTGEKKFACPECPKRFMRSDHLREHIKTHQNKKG
In short: as §1

ZFP SBS#1456 = ZFP SBS#1456 (synthetic)
Sequence of ZFP SBS#1456 (synthetic) (chain, as listed by the source): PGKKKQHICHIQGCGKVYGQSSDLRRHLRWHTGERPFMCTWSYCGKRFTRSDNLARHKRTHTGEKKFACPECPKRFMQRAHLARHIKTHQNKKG
In short: as §1

ZFP SBS#1454 = ZFP SBS#1454 (synthetic)
In short: as §1

ZFP SBS#1484 = ZFP SBS#1484 (synthetic)
Sequence of ZFP SBS#1484 (synthetic) (chain, as listed by the source): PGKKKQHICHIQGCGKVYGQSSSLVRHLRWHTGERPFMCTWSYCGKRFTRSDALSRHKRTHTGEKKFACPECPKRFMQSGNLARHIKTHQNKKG
In short: as §1

ZFP SBS#1491 = target: T23, ZFP SBS#1491 (synthetic)
T23 chain: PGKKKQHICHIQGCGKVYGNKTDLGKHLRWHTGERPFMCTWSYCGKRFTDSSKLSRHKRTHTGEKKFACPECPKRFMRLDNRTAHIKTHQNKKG
In short: as §1

ZFP SBS#1442 = target: T24, ZFP SBS#1442 (synthetic)
T24 chain: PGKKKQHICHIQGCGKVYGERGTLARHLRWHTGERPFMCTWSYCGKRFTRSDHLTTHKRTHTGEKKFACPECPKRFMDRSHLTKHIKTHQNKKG
In short: as §1

B1: CTGGTTGGG (dsDNA)
DNA 1: CTGGTTGGG
DNA 2: CCCAACCAG
For B1, which Kd (ZFP SBS#1471) is on record?
Its Kd is 0.09 nM.

And the Kd (ZFP SBS#1490)?
Its Kd is 0.04 nM.

B2: GACGAGGAG (dsDNA)
DNA 1: GACGAGGAG
DNA 2: CTCCTCGTC
Which Kd (ZFP SBS#1464) does the source give for B2 here?
Its Kd is 0.002 nM.

And the Kd (ZFP SBS#1461)?
The Kd was 0.014 nM.

B3: TGCGGGGCA (dsDNA)
DNA 1: TGCGGGGCA
DNA 2: TGCCCCGCA
How did the Kd (ZFP SBS#558) turn out when B3 was run?
Its Kd is 21 nM.

What about the Kd (ZFP SBS#1262) of the same binder?
Its Kd is 3 nM.

What about the Kd (ZFP SBS#1261) of the same binder?
The Kd was 0.2 nM.

What about the Kd (ZFP SBS#1263) of the same binder?
The Kd was 21 nM.

B4: AAGTGAGCT (dsDNA)
DNA 1: AAGTGAGCT
DNA 2: AGCTCACTT
Which Kd (ZFP SBS#1485) does the source give for B4 here?
Its Kd is 1.54 nM.

B5: TGGAAGGAA (dsDNA)
DNA 1: TGGAAGGAA
DNA 2: TTCCTTCCA
Which Kd (ZFP SBS#1446) does the source give for B5 here?
The Kd was 0.42 nM.

And the Kd (ZFP SBS#1443)?
The Kd was 0.22 nM.

And the Kd (ZFP SBS#1444)?
The Kd was 0.09 nM.

And the Kd (ZFP SBS#1445)?
Its Kd is 0.182 nM.

B6: GCAGCCCGG (dsDNA)
DNA 1: GCAGCCCGG
DNA 2: CCGGGCTGC
How did the Kd (ZFP SBS#1477) turn out when B6 was run?
Its Kd is 2.31 nM.

B7: TTGAAGGTT (dsDNA)
DNA 1: TTGAAGGTT
DNA 2: AACCTTCAA
How did the Kd (ZFP SBS#1475) turn out when B7 was run?
Its Kd is 0.39 nM.

And the Kd (ZFP SBS#1473)?
Its Kd is 0.47 nM.

And the Kd (ZFP SBS#1476)?
The Kd was 0.305 nM.

And the Kd (ZFP SBS#1487)?
The Kd was 0.188 nM.

And the Kd (ZFP SBS#1474)?
The Kd was 1.39 nM.

And the Kd (ZFP SBS#1472)?
The Kd was 3.22 nM.

B8: CCGTGTGAC (dsDNA)
DNA 1: CCGTGTGAC
DNA 2: GTCACACGG
What does the source list for B8?
Kd (ZFP SBS#1482): 111 nM; Kd (ZFP SBS#1483): 20.8 nM

B9: GGTGATGTC (dsDNA)
DNA 1: GGTGATGTC
DNA 2: GACATCACC
Which Kd (ZFP SBS#1469) does the source give for B9 here?
Its Kd is 0.28 nM.

And the Kd (ZFP SBS#1468)?
The Kd was 0.08 nM.

And the Kd (ZFP SBS#1470)?
Its Kd is 0.156 nM.

B10: GAGGCTGTT (dsDNA)
DNA 1: GAGGCTGTT
DNA 2: AACAGCCTC
How did the Kd (ZFP SBS#1463) turn out when B10 was run?
Its Kd is 0.003 nM.

B11: GAAAGTTCA (dsDNA)
DNA 1: GAAAGTTCA
DNA 2: TGAACTTTC
For B11, which Kd (ZFP SBS#1481) is on record?
Its Kd is 37 nM.

What about the Kd (ZFP SBS#1479) of the same binder?
Its Kd is 37 nM.

And the Kd (ZFP SBS#1480)?
Its Kd is 62.5 nM.

B12: CTGGGAGTT (dsDNA)
DNA 1: CTGGGAGTT
DNA 2: AACTCCCAG
Which results are given for B12?
Kd (ZFP SBS#1466): 0.017 nM; Kd (ZFP SBS#1465): 0.018 nM

B13: CGGGATGAA (dsDNA)
DNA 1: CGGGATGAA
DNA 2: TTCATCCCG
What does the source list for B13?
Kd (ZFP SBS#1455): 0.043 nM; Kd (ZFP SBS#1462): 0.05 nM

B14: GGAGAGGCT (dsDNA)
DNA 1: GGAGAGGCT
DNA 2: AGCCTCTCC
With B14 as the binder, how does the Kd (ZFP SBS#1456) read?
The Kd was 0.016 nM.

What about the Kd (ZFP SBS#1454) of the same binder?
The Kd was 0.01 nM.

B15: GAAGTGGTA (dsDNA)
DNA 1: GAAGTGGTA
DNA 2: TACCACTTC
With B15 as the binder, how does the Kd (ZFP SBS#1484) read?
Its Kd is 0.01 nM.

B16: AAGGGTTCA (dsDNA)
DNA 1: AAGGGTTCA
DNA 2: TGAACCCTT
For B16, which Kd (ZFP SBS#1491) is on record?
The Kd was 4.12 nM.

B17: TGCTGGGCC (dsDNA)
DNA 1: TGCTGGGCC
DNA 2: GGCCCAGCA
B17 was tested. Which Kd (ZFP SBS#1442) did it give?
The Kd was 0.36 nM.

Reference: patent US20030068675, “Position dependent recognition of GNN nucleotide triplets by zinc fingers” (published 2003)
